Patent US20180155451A1 (published 2018)

T1: FcγRIIb extracellular domain with C-terminal His tag (human, UniProt P31994 43-217)
T1 construct: extracellular domain; also called 2b; FcgRIIb
T1 sequence (looked up): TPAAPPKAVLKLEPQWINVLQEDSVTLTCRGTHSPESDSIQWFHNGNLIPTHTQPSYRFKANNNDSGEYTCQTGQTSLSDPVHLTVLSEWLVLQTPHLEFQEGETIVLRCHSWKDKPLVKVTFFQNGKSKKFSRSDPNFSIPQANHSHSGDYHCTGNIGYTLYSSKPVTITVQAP


Experiments:
[1] = target: T2, FcγRIIIa extracellular domain with C-terminal His tag (human, UniProt P08637 17-208); experiment: SPR; He/Con_3a over He/Con_2b (FcγRIIb)
T2 construct: extracellular domain; also called 3a; FcgRIIIa
T2 sequence (P08637 17-208): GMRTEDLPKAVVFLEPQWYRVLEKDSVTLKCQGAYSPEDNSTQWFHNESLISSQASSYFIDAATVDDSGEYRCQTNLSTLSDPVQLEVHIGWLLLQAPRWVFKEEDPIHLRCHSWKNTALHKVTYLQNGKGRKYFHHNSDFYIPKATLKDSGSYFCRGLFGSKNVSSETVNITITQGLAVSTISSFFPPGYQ

[2] = target: T2, FcγRIIIa extracellular domain with …; experiment: SPR, relative to GpH7-A5/GpH7-B3/GpL16-k0
[3] = target: T1, FcγRIIb extracellular domain with …; experiment: SPR, relative to GpH7-A5/GpH7-B3/GpL16-k0

Binder	He_3a/2b (IIIa/IIb) [1]	He/Con_3a [2]	He/Con_2b [3]
GpH7-A5/GpH7-B3 variant G236_15Y/GpL16-k0 (antibody, human IgG1, kappa, He Ab: alteration in one H chain only; also called He Ab) heavy 1: not shown heavy 2: not shown light: DIVMTQSPLSLPVTPGEPASISCQASESLVHSNRNTYLHWYLQKPGQSPQLLIYKVSNRFSGVPDRFSGSGSGTDFTLKISRVEAEDVGVYYCSQNTHVPPTFGQGTKVEIERTVAAPSVFIFPPSDEQLKSGTASVVCLLNNFYPREAKVQWKVDNALQSGNSQESVTEQDSKDSTYSLSSTLTLSKADYEKHKVYACEVTHQGLSSPVTKSFNRGEC	3.06 ratio	121 control=100	39.5 control=100
GpH7-A5/GpH7-B3 variant G236_20W/GpL16-k0 (antibody, human IgG1, kappa, He Ab: alteration in one H chain only; also called He Ab) heavy 1: not shown heavy 2: not shown light: DIVMTQSPLSLPVTPGEPASISCQASESLVHSNRNTYLHWYLQKPGQSPQLLIYKVSNRFSGVPDRFSGSGSGTDFTLKISRVEAEDVGVYYCSQNTHVPPTFGQGTKVEIERTVAAPSVFIFPPSDEQLKSGTASVVCLLNNFYPREAKVQWKVDNALQSGNSQESVTEQDSKDSTYSLSSTLTLSKADYEKHKVYACEVTHQGLSSPVTKSFNRGEC	2.33 ratio	135 control=100	58.2 control=100
GpH7-A5/GpH7-B3 variant L234_12R/GpL16-k0 (antibody, human IgG1, kappa, He Ab: alteration in one H chain only; also called He Ab) heavy 1: not shown heavy 2: not shown light: DIVMTQSPLSLPVTPGEPASISCQASESLVHSNRNTYLHWYLQKPGQSPQLLIYKVSNRFSGVPDRFSGSGSGTDFTLKISRVEAEDVGVYYCSQNTHVPPTFGQGTKVEIERTVAAPSVFIFPPSDEQLKSGTASVVCLLNNFYPREAKVQWKVDNALQSGNSQESVTEQDSKDSTYSLSSTLTLSKADYEKHKVYACEVTHQGLSSPVTKSFNRGEC	1.95 ratio	36.9 control=100	18.9 control=100
GpH7-A5/GpH7-B3 variant L235_13S/GpL16-k0 (antibody, human IgG1, kappa, He Ab: alteration in one H chain only; also called He Ab) heavy 1: not shown heavy 2: not shown light: DIVMTQSPLSLPVTPGEPASISCQASESLVHSNRNTYLHWYLQKPGQSPQLLIYKVSNRFSGVPDRFSGSGSGTDFTLKISRVEAEDVGVYYCSQNTHVPPTFGQGTKVEIERTVAAPSVFIFPPSDEQLKSGTASVVCLLNNFYPREAKVQWKVDNALQSGNSQESVTEQDSKDSTYSLSSTLTLSKADYEKHKVYACEVTHQGLSSPVTKSFNRGEC	1.44 ratio	69.6 control=100	48.2 control=100
GpH7-A5/GpH7-B3 variant L234_11K/GpL16-k0 (antibody, human IgG1, kappa, He Ab: alteration in one H chain only; also called He Ab) heavy 1: not shown heavy 2: not shown light: DIVMTQSPLSLPVTPGEPASISCQASESLVHSNRNTYLHWYLQKPGQSPQLLIYKVSNRFSGVPDRFSGSGSGTDFTLKISRVEAEDVGVYYCSQNTHVPPTFGQGTKVEIERTVAAPSVFIFPPSDEQLKSGTASVVCLLNNFYPREAKVQWKVDNALQSGNSQESVTEQDSKDSTYSLSSTLTLSKADYEKHKVYACEVTHQGLSSPVTKSFNRGEC	1.88 ratio	30.5 control=100	16.2 control=100
GpH7-A5/GpH7-B3 variant L234_05P/GpL16-k0 (antibody, human IgG1, kappa, He Ab: alteration in one H chain only; also called He Ab) heavy 1: not shown heavy 2: not shown light: DIVMTQSPLSLPVTPGEPASISCQASESLVHSNRNTYLHWYLQKPGQSPQLLIYKVSNRFSGVPDRFSGSGSGTDFTLKISRVEAEDVGVYYCSQNTHVPPTFGQGTKVEIERTVAAPSVFIFPPSDEQLKSGTASVVCLLNNFYPREAKVQWKVDNALQSGNSQESVTEQDSKDSTYSLSSTLTLSKADYEKHKVYACEVTHQGLSSPVTKSFNRGEC	1.21 ratio	88.1 control=100	72.9 control=100
GpH7-A5/GpH7-B3 variant H268_06M/GpL16-k0 (antibody, human IgG1, kappa, He Ab: alteration in one H chain only; also called He Ab) heavy 1: not shown heavy 2: not shown light: DIVMTQSPLSLPVTPGEPASISCQASESLVHSNRNTYLHWYLQKPGQSPQLLIYKVSNRFSGVPDRFSGSGSGTDFTLKISRVEAEDVGVYYCSQNTHVPPTFGQGTKVEIERTVAAPSVFIFPPSDEQLKSGTASVVCLLNNFYPREAKVQWKVDNALQSGNSQESVTEQDSKDSTYSLSSTLTLSKADYEKHKVYACEVTHQGLSSPVTKSFNRGEC	1.22 ratio	80.3 control=100	65.7 control=100
GpH7-A5/GpH7-B3 variant L234_19Q/GpL16-k0 (antibody, human IgG1, kappa, He Ab: alteration in one H chain only; also called He Ab) heavy 1: not shown heavy 2: not shown light: DIVMTQSPLSLPVTPGEPASISCQASESLVHSNRNTYLHWYLQKPGQSPQLLIYKVSNRFSGVPDRFSGSGSGTDFTLKISRVEAEDVGVYYCSQNTHVPPTFGQGTKVEIERTVAAPSVFIFPPSDEQLKSGTASVVCLLNNFYPREAKVQWKVDNALQSGNSQESVTEQDSKDSTYSLSSTLTLSKADYEKHKVYACEVTHQGLSSPVTKSFNRGEC	1.32 ratio	79.8 control=100	60.3 control=100
GpH7-A5/GpH7-B3 variant L234_03V/GpL16-k0 (antibody, human IgG1, kappa, He Ab: alteration in one H chain only; also called He Ab) heavy 1: not shown heavy 2: not shown light: DIVMTQSPLSLPVTPGEPASISCQASESLVHSNRNTYLHWYLQKPGQSPQLLIYKVSNRFSGVPDRFSGSGSGTDFTLKISRVEAEDVGVYYCSQNTHVPPTFGQGTKVEIERTVAAPSVFIFPPSDEQLKSGTASVVCLLNNFYPREAKVQWKVDNALQSGNSQESVTEQDSKDSTYSLSSTLTLSKADYEKHKVYACEVTHQGLSSPVTKSFNRGEC	1.25 ratio	91.4 control=100	73.1 control=100
GpH7-A5/GpH7-B3 variant L234_07I/GpL16-k0 (antibody, human IgG1, kappa, He Ab: alteration in one H chain only; also called He Ab) heavy 1: not shown heavy 2: not shown light: DIVMTQSPLSLPVTPGEPASISCQASESLVHSNRNTYLHWYLQKPGQSPQLLIYKVSNRFSGVPDRFSGSGSGTDFTLKISRVEAEDVGVYYCSQNTHVPPTFGQGTKVEIERTVAAPSVFIFPPSDEQLKSGTASVVCLLNNFYPREAKVQWKVDNALQSGNSQESVTEQDSKDSTYSLSSTLTLSKADYEKHKVYACEVTHQGLSSPVTKSFNRGEC	1.27 ratio	103 control=100	80.9 control=100
GpH7-A5/GpH7-B3 variant L235_01G/GpL16-k0 (antibody, human IgG1, kappa, He Ab: alteration in one H chain only; also called He Ab) heavy 1: not shown heavy 2: not shown light: DIVMTQSPLSLPVTPGEPASISCQASESLVHSNRNTYLHWYLQKPGQSPQLLIYKVSNRFSGVPDRFSGSGSGTDFTLKISRVEAEDVGVYYCSQNTHVPPTFGQGTKVEIERTVAAPSVFIFPPSDEQLKSGTASVVCLLNNFYPREAKVQWKVDNALQSGNSQESVTEQDSKDSTYSLSSTLTLSKADYEKHKVYACEVTHQGLSSPVTKSFNRGEC	1.66 ratio	58.8 control=100	35.4 control=100
GpH7-A5/GpH7-B3 variant L235_11K/GpL16-k0 (antibody, human IgG1, kappa, He Ab: alteration in one H chain only; also called He Ab) heavy 1: not shown heavy 2: not shown light: DIVMTQSPLSLPVTPGEPASISCQASESLVHSNRNTYLHWYLQKPGQSPQLLIYKVSNRFSGVPDRFSGSGSGTDFTLKISRVEAEDVGVYYCSQNTHVPPTFGQGTKVEIERTVAAPSVFIFPPSDEQLKSGTASVVCLLNNFYPREAKVQWKVDNALQSGNSQESVTEQDSKDSTYSLSSTLTLSKADYEKHKVYACEVTHQGLSSPVTKSFNRGEC	6.06 ratio	38.1 control=100	6.3 control=100
GpH7-A5/GpH7-B3 variant L234_15Y/GpL16-k0 (antibody, human IgG1, kappa, He Ab: alteration in one H chain only; also called He Ab) heavy 1: not shown heavy 2: not shown light: DIVMTQSPLSLPVTPGEPASISCQASESLVHSNRNTYLHWYLQKPGQSPQLLIYKVSNRFSGVPDRFSGSGSGTDFTLKISRVEAEDVGVYYCSQNTHVPPTFGQGTKVEIERTVAAPSVFIFPPSDEQLKSGTASVVCLLNNFYPREAKVQWKVDNALQSGNSQESVTEQDSKDSTYSLSSTLTLSKADYEKHKVYACEVTHQGLSSPVTKSFNRGEC	1.35 ratio	130 control=100	96.3 control=100
GpH7-A5/GpH7-B3 variant L235_03V/GpL16-k0 (antibody, human IgG1, kappa, He Ab: alteration in one H chain only; also called He Ab) heavy 1: not shown heavy 2: not shown light: DIVMTQSPLSLPVTPGEPASISCQASESLVHSNRNTYLHWYLQKPGQSPQLLIYKVSNRFSGVPDRFSGSGSGTDFTLKISRVEAEDVGVYYCSQNTHVPPTFGQGTKVEIERTVAAPSVFIFPPSDEQLKSGTASVVCLLNNFYPREAKVQWKVDNALQSGNSQESVTEQDSKDSTYSLSSTLTLSKADYEKHKVYACEVTHQGLSSPVTKSFNRGEC	1.48 ratio	98 control=100	66.4 control=100
GpH7-A5/GpH7-B3 variant G236_16H/GpL16-k0 (antibody, human IgG1, kappa, He Ab: alteration in one H chain only; also called He Ab) heavy 1: not shown heavy 2: not shown light: DIVMTQSPLSLPVTPGEPASISCQASESLVHSNRNTYLHWYLQKPGQSPQLLIYKVSNRFSGVPDRFSGSGSGTDFTLKISRVEAEDVGVYYCSQNTHVPPTFGQGTKVEIERTVAAPSVFIFPPSDEQLKSGTASVVCLLNNFYPREAKVQWKVDNALQSGNSQESVTEQDSKDSTYSLSSTLTLSKADYEKHKVYACEVTHQGLSSPVTKSFNRGEC	1.54 ratio	43.1 control=100	27.9 control=100
GpH7-A5/GpH7-B3 variant L235_05P/GpL16-k0 (antibody, human IgG1, kappa, He Ab: alteration in one H chain only; also called He Ab) heavy 1: not shown heavy 2: not shown light: DIVMTQSPLSLPVTPGEPASISCQASESLVHSNRNTYLHWYLQKPGQSPQLLIYKVSNRFSGVPDRFSGSGSGTDFTLKISRVEAEDVGVYYCSQNTHVPPTFGQGTKVEIERTVAAPSVFIFPPSDEQLKSGTASVVCLLNNFYPREAKVQWKVDNALQSGNSQESVTEQDSKDSTYSLSSTLTLSKADYEKHKVYACEVTHQGLSSPVTKSFNRGEC	1.3 ratio	71.1 control=100	54.7 control=100
GpH7-A5/GpH7-B3 variant L234_16H/GpL16-k0 (antibody, human IgG1, kappa, He Ab: alteration in one H chain only; also called He Ab) heavy 1: not shown heavy 2: not shown light: DIVMTQSPLSLPVTPGEPASISCQASESLVHSNRNTYLHWYLQKPGQSPQLLIYKVSNRFSGVPDRFSGSGSGTDFTLKISRVEAEDVGVYYCSQNTHVPPTFGQGTKVEIERTVAAPSVFIFPPSDEQLKSGTASVVCLLNNFYPREAKVQWKVDNALQSGNSQESVTEQDSKDSTYSLSSTLTLSKADYEKHKVYACEVTHQGLSSPVTKSFNRGEC	1.34 ratio	79.5 control=100	59.4 control=100
